Reference: US20230002496A1 (STAIDSON BEIJING BIOPHARMACEUTICALS, published 2023)
Changes are numbered by the printed parent chain.

T1: human GM-CSFRα, full length on cells (human, UniProt P15509 23-400)
T1 sequence: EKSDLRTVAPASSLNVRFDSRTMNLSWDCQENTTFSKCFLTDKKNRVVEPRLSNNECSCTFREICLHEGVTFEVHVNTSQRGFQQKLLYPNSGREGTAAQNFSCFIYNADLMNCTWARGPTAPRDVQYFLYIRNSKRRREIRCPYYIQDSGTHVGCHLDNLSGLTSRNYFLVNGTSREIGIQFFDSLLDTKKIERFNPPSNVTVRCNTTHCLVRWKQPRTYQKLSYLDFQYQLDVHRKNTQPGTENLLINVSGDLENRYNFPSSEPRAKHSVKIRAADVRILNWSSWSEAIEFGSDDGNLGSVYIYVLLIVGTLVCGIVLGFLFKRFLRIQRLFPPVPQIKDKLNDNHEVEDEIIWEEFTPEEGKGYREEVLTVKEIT

B1: E35-scFv LS31L (scFv, V domains shown)
VH: QMQLVQSGAEVKKPGASVKVSCKVSGYTLTELSIHWVRQAPGKGLEWMGGFDPEDGETIYAQKFQGRVTMTGDTSTDTAYLELSSLRSEDTALYYCATGRYTSLATTYGFDYWGQGTLVTVSS
VL: EIVMTQSPATLSLSPGERATLSCRASQSVSLYLAWYQQKPGQAPRLLIYGASSRATGIPDRFSGSGSGTDFTLTISRLEPEDFAVYYCQQYDNWPYTFGQGTKLEIK
B2: E35-scFv LS31G (scFv, V domains shown)
VH: B1 VH
VL: B1 VL with L31G
B3: E35-scFv LS31W (scFv, V domains shown)
VH: B1 VH
VL: B1 VL with L31W
B4: E35-scFv LS31I (scFv, V domains shown)
VH: B1 VH
VL: B1 VL with L31I
B5: E35-scFv LS31E (scFv, V domains shown)
VH: B1 VH
VL: B1 VL with L31E
B6: E35-scFv LS31D (scFv, V domains shown)
VH: B1 VH
VL: B1 VL with L31D
B7: E35-scFv LS28H (scFv, V domains shown)
VH: B1 VH
VL: B1 VL with S28H, L31S
B8: E35-scFv LS28W (scFv, V domains shown)
VH: B1 VH
VL: B1 VL with S28W, L31S
B9: E35-scFv LS28L (scFv, V domains shown)
VH: B1 VH
VL: B1 VL with S28L, L31S
B10: E35-scFv LS28R (scFv, V domains shown)
VH: B1 VH
VL: B1 VL with S28R, L31S
B11: E35-scFv LS28K (scFv, V domains shown)
VH: B1 VH
VL: B1 VL with S28K, L31S
B12: E35-scFv LS28T (scFv, V domains shown)
VH: B1 VH
VL: B1 VL with S28T, L31S
B13: E35-scFv LS28P (scFv, V domains shown)
VH: B1 VH
VL: B1 VL with S28P, L31S
B14: E35-scFv LS28I (scFv, V domains shown)
VH: B1 VH
VL: B1 VL with S28I, L31S
B15: E35-scFv LS28F (scFv, V domains shown)
VH: B1 VH
VL: B1 VL with S28F, L31S
B16: E35-scFv LS28V (scFv, V domains shown)
VH: B1 VH
VL: B1 VL with S28V, L31S
B17: E35-scFv LS28E (scFv, V domains shown)
VH: B1 VH
VL: B1 VL with S28E, L31S
B18: E35-scFv LS28A (scFv, V domains shown)
VH: B1 VH
VL: B1 VL with S28A, L31S
B19: E35-scFv (scFv, V domains shown)
VH: B1 VH
VL: B1 VL with L31S
B20: E35-scFv LS28Q (scFv, V domains shown)
VH: B1 VH
VL: B1 VL with S28Q, L31S
B21: E35-scFv LS30L (scFv, V domains shown)
VH: B1 VH
VL: B1 VL with S30L, L31S
B22: E35-scFv LS30W (scFv, V domains shown)
VH: B1 VH
VL: B1 VL with S30W, L31S
B23: E35-scFv LS30M (scFv, V domains shown)
VH: B1 VH
VL: B1 VL with S30M, L31S
B24: E35-scFv LS30A (scFv, V domains shown)
VH: B1 VH
VL: B1 VL with S30A, L31S
B25: E35-scFv LS30Y (scFv, V domains shown)
VH: B1 VH
VL: B1 VL with S30Y, L31S
B26: E35-scFv LS30K (scFv, V domains shown)
VH: B1 VH
VL: B1 VL with S30K, L31S
B27: E35-scFv LS30R (scFv, V domains shown)
VH: B1 VH
VL: B1 VL with S30R, L31S
B28: E35-scFv LS30G (scFv, V domains shown)
VH: B1 VH
VL: B1 VL with S30G, L31S
B29: E35-scFv LS30T (scFv, V domains shown)
VH: B1 VH
VL: B1 VL with S30T, L31S
B30: E35-scFv LS30E (scFv, V domains shown)
VH: B1 VH
VL: B1 VL with S30E, L31S
B31: E35-scFv LS30V (scFv, V domains shown)
VH: B1 VH
VL: B1 VL with S30V, L31S
B32: E35-scFv LS30N (scFv, V domains shown)
VH: B1 VH
VL: B1 VL with S30N, L31S
B33: E35-scFv LS30F (scFv, V domains shown)
VH: B1 VH
VL: B1 VL with S30F, L31S
B34: E35-scFv LS30C (scFv, V domains shown)
VH: B1 VH
VL: B1 VL with S30C, L31S
B35: E35-scFv LY32L (scFv, V domains shown)
VH: B1 VH
VL: B1 VL with L31S, Y32L
B36: E35-scFv LY32F (scFv, V domains shown)
VH: B1 VH
VL: B1 VL with L31S, Y32F
B37: E35-scFv LY32M (scFv, V domains shown)
VH: B1 VH
VL: B1 VL with L31S, Y32M
B38: E35-scFv LY32T (scFv, V domains shown)
VH: B1 VH
VL: B1 VL with L31S, Y32T
B39: E35-scFv LY32Q (scFv, V domains shown)
VH: B1 VH
VL: B1 VL with L31S, Y32Q
B40: E35-scFv LY32W (scFv, V domains shown)
VH: B1 VH
VL: B1 VL with L31S, Y32W
B41: E35-scFv LY32V (scFv, V domains shown)
VH: B1 VH
VL: B1 VL with L31S, Y32V
B42: E35-scFv LY32A (scFv, V domains shown)
VH: B1 VH
VL: B1 VL with L31S, Y32A
B43: E35-scFv LY32G (scFv, V domains shown)
VH: B1 VH
VL: B1 VL with L31S, Y32G
B44: E35-scFv LY32C (scFv, V domains shown)
VH: B1 VH
VL: B1 VL with L31S, Y32C

These binders were tested against T1, human GM-CSFRα, full length on cells (assay: cell-based or functional assay).

Row | Binder | IC50, TF-1 cell proliferation [µg/mL]
1 | B1 | 0.235
2 | B2 | 0.279
3 | B3 | 0.649
4 | B4 | 0.681
5 | B5 | 0.832
6 | B6 | 1.34
7 | B7 | 0.058
8 | B8 | 0.06
9 | B9 | 0.067
10 | B10 | 0.077
11 | B11 | 0.082
12 | B12 | 0.088
13 | B13 | 0.089
14 | B14 | 0.091
15 | B15 | 0.1
16 | B16 | 0.104
17 | B17 | 0.111
18 | B18 | 0.116
19 | B19 | 0.12
20 | B20 | 0.154
21 | B21 | 0.069
22 | B22 | 0.071

Row | Binder | IC50, TF-1 cell proliferation [µg/mL]
23 | B23 | 0.073
24 | B24 | 0.078
25 | B25 | 0.082
26 | B26 | 0.083
27 | B27 | 0.088
28 | B28 | 0.092
29 | B29 | 0.092
30 | B30 | 0.1
31 | B31 | 0.124
32 | B32 | 0.132
33 | B33 | 0.16
34 | B34 | 0.221
35 | B35 | 0.07
36 | B36 | 0.21
37 | B37 | 0.42
38 | B38 | 0.51
39 | B39 | 0.87
40 | B40 | 1.17
41 | B41 | 1.23
42 | B42 | 1.35
43 | B43 | 1.35
44 | B44 | 1.9
